# Data from PMC3995836.
# pKd: −log10 of the molar value.
# Tests used:
# [1] = target: WW1 domain of human YAP2 (residues 171-205) (human) (UniProt P46937); experiment: ITC
# [2] = target: WW2 domain of human YAP2 (residues 230-264) (human) (UniProt P46937); experiment: ITC
# Chain of WW2 domain of human YAP2 (residues 230-264) (human) (P46937 230-264): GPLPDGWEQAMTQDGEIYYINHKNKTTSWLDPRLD
# Chain of WW1 domain of human YAP2 (residues 171-205) (human) (P46937 171-205): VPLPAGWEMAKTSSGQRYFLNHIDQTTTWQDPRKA
dH [1] [kcal/mol],pKd [2],dH [2] [kcal/mol],pKd [1],Substance
-12.7,3.90,-10.1,,"ErbB4_PY3 peptide, alanine mutant PY3_A+2"
-14.6,4.34,-14.6,4.82,"ErbB4_PY3 peptide, alanine mutant PY3_A+5"
-16.9,4.21,-10.3,4.34,"ErbB4_PY3 peptide, alanine mutant PY3_A-3"
-2.94,3.94,-4.23,4.08,ErbB4_PY2 peptide (12-mer with the PY2 PPXY motif of the ICD of human ErbB4)
-16.1,4.08,-13.1,4.35,"ErbB4_PY3 peptide, alanine mutant PY3_A-2"
-13.3,4.25,-7.72,4.51,"ErbB4_PY3 peptide, wildtype (12-mer with the PY3 PPXY motif of the ICD of human ErbB4)"
-9.8,,-8.61,4.28,"ErbB4_PY3 peptide, alanine mutant PY3_A+4"
-15.9,3.96,-10.7,4.15,"ErbB4_PY3 peptide, alanine mutant PY3_A-1"
-10.3,4.07,-9.06,4.44,"ErbB4_PY3 peptide, alanine mutant PY3_A+6"
-6.14,,-3.9,3.95,ErbB4_PY1 peptide (12-mer with the PY1 PPXY motif of the ICD of human ErbB4)
